From article PMC8902620, “Oligomerization of DNA replication regulatory protein RADX is essential to maintain replication fork stability” (The Journal of Biological Chemistry, 2022) come the findings set out here.

B1: mCherry-FLAG-RADX E842K (natural protein, human, UniProt Q6NSI4 1-855, looked up)
chain: MSGESGQPEAGPSHAGLDWPNPERNRAGVPGGVIRRAGSQGPRSWIQKVLEQIMDSPRQCVTPSEVVPVTVLAVQRYLLEDEPRDTVPKPPLYCYDVTISDGVYQEKCYLDPSLNSLVYQNILKVGIQMRISRVSCLYNEKRIGQGILCIDNVHCGETSDSISLETPFRNRAHQEKPERPLRGGKSHYLALWNNEDPYGDIWLTDKQPEEHNFSDTKIISLSHLEMTWTNRRNFPALLVRILHKSKLRYYGKPDKKMIEPYQTFLEVADSSGTVSVIMWNALCPEWYKSLRVGLVLLLQDYSVKKSYPFRIQPVPVDPQIKLISTMEICLNLRDPPTNIIIIPEKQVKPEWRLPKLNHRFTTRSELDDMPENCICDVIGLLVFVGRVQRSKKKENREDFWSYRWIHIADGTSEQPFIVELFSTSQPEIFENIYPMAYFVCTQLKVVRNDNQVPKLLYLTTTNESGVFITGHRGQPYTYDAKVKNFIQWIRTKSDSGEQKNMVIGGYYPYPPVPETFSKYSSSIKVESLLTAISEVRKEIEDLQYREQKRIAIQGIITAIKYIPHSSATESASASETLRNANRPSTSQAARVEIQERNGKRHQDDEPVNSQYFQTTSTNLSLSNKIRILQGPHANPVAVPQPGASVQTKGIKPGMPSIFNRRANINANLQGKARKTISDRWESQLWREKKFGLIDHLHYSRVYPESIPRKFMFEHRKFLSDQYNSQPAKYVPPEGRPPKLDDFKSARSLGHFEVTILGLNHEIAIDVAFLPMYCPEDIRTSQIDTLLTSMNYSCAYPQDTTGNDRLPGPRAVAGDIIKAATELDRVHIVGILDICNLGNNKVKVYLHKIYSPENTS
notes: RADX, human, full length with one point mutation; also called E842K RADX; pTM156; source: HEK293T, purified (anti-FLAG M2 beads, 3x FLAG peptide, Superdex 200)
B2: mCherry-FLAG-RADX NHEI to AAAA (residues 759–762) (natural protein, human, UniProt Q6NSI4 1-855, looked up)
chain: MSGESGQPEAGPSHAGLDWPNPERNRAGVPGGVIRRAGSQGPRSWIQKVLEQIMDSPRQCVTPSEVVPVTVLAVQRYLLEDEPRDTVPKPPLYCYDVTISDGVYQEKCYLDPSLNSLVYQNILKVGIQMRISRVSCLYNEKRIGQGILCIDNVHCGETSDSISLETPFRNRAHQEKPERPLRGGKSHYLALWNNEDPYGDIWLTDKQPEEHNFSDTKIISLSHLEMTWTNRRNFPALLVRILHKSKLRYYGKPDKKMIEPYQTFLEVADSSGTVSVIMWNALCPEWYKSLRVGLVLLLQDYSVKKSYPFRIQPVPVDPQIKLISTMEICLNLRDPPTNIIIIPEKQVKPEWRLPKLNHRFTTRSELDDMPENCICDVIGLLVFVGRVQRSKKKENREDFWSYRWIHIADGTSEQPFIVELFSTSQPEIFENIYPMAYFVCTQLKVVRNDNQVPKLLYLTTTNESGVFITGHRGQPYTYDAKVKNFIQWIRTKSDSGEQKNMVIGGYYPYPPVPETFSKYSSSIKVESLLTAISEVRKEIEDLQYREQKRIAIQGIITAIKYIPHSSATESASASETLRNANRPSTSQAARVEIQERNGKRHQDDEPVNSQYFQTTSTNLSLSNKIRILQGPHANPVAVPQPGASVQTKGIKPGMPSIFNRRANINANLQGKARKTISDRWESQLWREKKFGLIDHLHYSRVYPESIPRKFMFEHRKFLSDQYNSQPAKYVPPEGRPPKLDDFKSARSLGHFEVTILGLAAAAAIDVAFLPMYCPEDIRTSQIDTLLTSMNYSCAYPQDTTGNDRLPGPRAVAGDIIKAATELDRVHIVGILDICNLGNNKVEVYLHKIYSPENTS
notes: also called pTM109; source: HEK293T, purified (anti-FLAG M2 beads, 3x FLAG peptide, Superdex 200)
B3: mCherry-FLAG-RADX K840D (natural protein, human, UniProt Q6NSI4 1-855, looked up)
chain: MSGESGQPEAGPSHAGLDWPNPERNRAGVPGGVIRRAGSQGPRSWIQKVLEQIMDSPRQCVTPSEVVPVTVLAVQRYLLEDEPRDTVPKPPLYCYDVTISDGVYQEKCYLDPSLNSLVYQNILKVGIQMRISRVSCLYNEKRIGQGILCIDNVHCGETSDSISLETPFRNRAHQEKPERPLRGGKSHYLALWNNEDPYGDIWLTDKQPEEHNFSDTKIISLSHLEMTWTNRRNFPALLVRILHKSKLRYYGKPDKKMIEPYQTFLEVADSSGTVSVIMWNALCPEWYKSLRVGLVLLLQDYSVKKSYPFRIQPVPVDPQIKLISTMEICLNLRDPPTNIIIIPEKQVKPEWRLPKLNHRFTTRSELDDMPENCICDVIGLLVFVGRVQRSKKKENREDFWSYRWIHIADGTSEQPFIVELFSTSQPEIFENIYPMAYFVCTQLKVVRNDNQVPKLLYLTTTNESGVFITGHRGQPYTYDAKVKNFIQWIRTKSDSGEQKNMVIGGYYPYPPVPETFSKYSSSIKVESLLTAISEVRKEIEDLQYREQKRIAIQGIITAIKYIPHSSATESASASETLRNANRPSTSQAARVEIQERNGKRHQDDEPVNSQYFQTTSTNLSLSNKIRILQGPHANPVAVPQPGASVQTKGIKPGMPSIFNRRANINANLQGKARKTISDRWESQLWREKKFGLIDHLHYSRVYPESIPRKFMFEHRKFLSDQYNSQPAKYVPPEGRPPKLDDFKSARSLGHFEVTILGLNHEIAIDVAFLPMYCPEDIRTSQIDTLLTSMNYSCAYPQDTTGNDRLPGPRAVAGDIIKAATELDRVHIVGILDICNLGNNDVEVYLHKIYSPENTS
notes: RADX, human, full length with one point mutation; also called pTM155; source: HEK293T, purified (anti-FLAG M2 beads, 3x FLAG peptide, Superdex 200)
B4: mCherry-FLAG-RADX K847D (natural protein, human, UniProt Q6NSI4 1-855, looked up)
chain: MSGESGQPEAGPSHAGLDWPNPERNRAGVPGGVIRRAGSQGPRSWIQKVLEQIMDSPRQCVTPSEVVPVTVLAVQRYLLEDEPRDTVPKPPLYCYDVTISDGVYQEKCYLDPSLNSLVYQNILKVGIQMRISRVSCLYNEKRIGQGILCIDNVHCGETSDSISLETPFRNRAHQEKPERPLRGGKSHYLALWNNEDPYGDIWLTDKQPEEHNFSDTKIISLSHLEMTWTNRRNFPALLVRILHKSKLRYYGKPDKKMIEPYQTFLEVADSSGTVSVIMWNALCPEWYKSLRVGLVLLLQDYSVKKSYPFRIQPVPVDPQIKLISTMEICLNLRDPPTNIIIIPEKQVKPEWRLPKLNHRFTTRSELDDMPENCICDVIGLLVFVGRVQRSKKKENREDFWSYRWIHIADGTSEQPFIVELFSTSQPEIFENIYPMAYFVCTQLKVVRNDNQVPKLLYLTTTNESGVFITGHRGQPYTYDAKVKNFIQWIRTKSDSGEQKNMVIGGYYPYPPVPETFSKYSSSIKVESLLTAISEVRKEIEDLQYREQKRIAIQGIITAIKYIPHSSATESASASETLRNANRPSTSQAARVEIQERNGKRHQDDEPVNSQYFQTTSTNLSLSNKIRILQGPHANPVAVPQPGASVQTKGIKPGMPSIFNRRANINANLQGKARKTISDRWESQLWREKKFGLIDHLHYSRVYPESIPRKFMFEHRKFLSDQYNSQPAKYVPPEGRPPKLDDFKSARSLGHFEVTILGLNHEIAIDVAFLPMYCPEDIRTSQIDTLLTSMNYSCAYPQDTTGNDRLPGPRAVAGDIIKAATELDRVHIVGILDICNLGNNKVEVYLHDIYSPENTS
notes: RADX, human, full length with one point mutation; also called K847D RADX; pTM157; source: HEK293T, purified (anti-FLAG M2 beads, 3x FLAG peptide, Superdex 200)
B5: mCherry-FLAG-RADX KIY to DIA (residues 847–849) (natural protein, human, UniProt Q6NSI4 1-855, looked up)
chain: MSGESGQPEAGPSHAGLDWPNPERNRAGVPGGVIRRAGSQGPRSWIQKVLEQIMDSPRQCVTPSEVVPVTVLAVQRYLLEDEPRDTVPKPPLYCYDVTISDGVYQEKCYLDPSLNSLVYQNILKVGIQMRISRVSCLYNEKRIGQGILCIDNVHCGETSDSISLETPFRNRAHQEKPERPLRGGKSHYLALWNNEDPYGDIWLTDKQPEEHNFSDTKIISLSHLEMTWTNRRNFPALLVRILHKSKLRYYGKPDKKMIEPYQTFLEVADSSGTVSVIMWNALCPEWYKSLRVGLVLLLQDYSVKKSYPFRIQPVPVDPQIKLISTMEICLNLRDPPTNIIIIPEKQVKPEWRLPKLNHRFTTRSELDDMPENCICDVIGLLVFVGRVQRSKKKENREDFWSYRWIHIADGTSEQPFIVELFSTSQPEIFENIYPMAYFVCTQLKVVRNDNQVPKLLYLTTTNESGVFITGHRGQPYTYDAKVKNFIQWIRTKSDSGEQKNMVIGGYYPYPPVPETFSKYSSSIKVESLLTAISEVRKEIEDLQYREQKRIAIQGIITAIKYIPHSSATESASASETLRNANRPSTSQAARVEIQERNGKRHQDDEPVNSQYFQTTSTNLSLSNKIRILQGPHANPVAVPQPGASVQTKGIKPGMPSIFNRRANINANLQGKARKTISDRWESQLWREKKFGLIDHLHYSRVYPESIPRKFMFEHRKFLSDQYNSQPAKYVPPEGRPPKLDDFKSARSLGHFEVTILGLNHEIAIDVAFLPMYCPEDIRTSQIDTLLTSMNYSCAYPQDTTGNDRLPGPRAVAGDIIKAATELDRVHIVGILDICNLGNNKVEVYLHDIASPENTS
notes: also called pTM114; source: HEK293T, purified (anti-FLAG M2 beads, 3x FLAG peptide, Superdex 200)
B6: mCherry-FLAG-RADX KVEV to DVKV (residues 840–843) (natural protein, human, UniProt Q6NSI4 1-855, looked up)
chain: MSGESGQPEAGPSHAGLDWPNPERNRAGVPGGVIRRAGSQGPRSWIQKVLEQIMDSPRQCVTPSEVVPVTVLAVQRYLLEDEPRDTVPKPPLYCYDVTISDGVYQEKCYLDPSLNSLVYQNILKVGIQMRISRVSCLYNEKRIGQGILCIDNVHCGETSDSISLETPFRNRAHQEKPERPLRGGKSHYLALWNNEDPYGDIWLTDKQPEEHNFSDTKIISLSHLEMTWTNRRNFPALLVRILHKSKLRYYGKPDKKMIEPYQTFLEVADSSGTVSVIMWNALCPEWYKSLRVGLVLLLQDYSVKKSYPFRIQPVPVDPQIKLISTMEICLNLRDPPTNIIIIPEKQVKPEWRLPKLNHRFTTRSELDDMPENCICDVIGLLVFVGRVQRSKKKENREDFWSYRWIHIADGTSEQPFIVELFSTSQPEIFENIYPMAYFVCTQLKVVRNDNQVPKLLYLTTTNESGVFITGHRGQPYTYDAKVKNFIQWIRTKSDSGEQKNMVIGGYYPYPPVPETFSKYSSSIKVESLLTAISEVRKEIEDLQYREQKRIAIQGIITAIKYIPHSSATESASASETLRNANRPSTSQAARVEIQERNGKRHQDDEPVNSQYFQTTSTNLSLSNKIRILQGPHANPVAVPQPGASVQTKGIKPGMPSIFNRRANINANLQGKARKTISDRWESQLWREKKFGLIDHLHYSRVYPESIPRKFMFEHRKFLSDQYNSQPAKYVPPEGRPPKLDDFKSARSLGHFEVTILGLNHEIAIDVAFLPMYCPEDIRTSQIDTLLTSMNYSCAYPQDTTGNDRLPGPRAVAGDIIKAATELDRVHIVGILDICNLGNNDVKVYLHKIYSPENTS
notes: The results print residues 840 to 844, the methods 840–843; also called pTM113; source: HEK293T, purified (anti-FLAG M2 beads, 3x FLAG peptide, Superdex 200)

The target of the assay is T1, full-length RADX, wild type, tagged with mCherry-FLAG or with GFP-HA (human, UniProt Q6NSI4 1-855).
T1 construct: RADX (cxorf57), human, full length; Two differently tagged copies of the same protein, written as one molecule; The GFP-HA copy is the one captured on GFP beads in the tests with purified proteins; The mCherry-FLAG copy is the one fished out there, and is the bait of the FLAG co-IP from lysate; also called mCherry-FLAG-RADX; m-Cherry-FLAG-RADX; source: HEK293T, transfected, in lysate; HEK293T, …
Put plainly: co-IP; purified mCherry-FLAG proteins mixed with purified GFP-HA-RADX and captured on GFP-trap magnetic agarose beads, 1 h at 4 °C; 50 mM Tris pH 7.5, 250 mM NaCl, 10% glycerol, 0.05% NP-40; immunoblot. The conditions noted are these: both partners purified.
With B1, the binding result was “binds”.

Regarding B2, the binding result is “binds”.

Regarding B3, the binding result is recorded as “binds”.

Turning to B4, the binding result was “binds”.

For the molecule B5, the binding result is “binds”.

For B6, the binding result was “binds”.
